± gives the standard deviation of the averaged measurements.
Assay: total protein half-life in vivo (active degradation + dilution); higher = more stable protein
[1] = E. coli NCM3722 delta-clpP delta-lon delta-hslV, growth: N-lim chemostat, doubling time 6 h
[2] = E. coli NCM3722 delta-clpP, growth: N-lim chemostat, doubling time 6 h
[3] = E. coli NCM3722 delta-hslV, growth: N-lim chemostat, doubling time 6 h
[4] = E. coli NCM3722 delta-lon, growth: N-lim chemostat, doubling time 6 h
[5] = E. coli NCM3722 delta-smpB, growth: N-lim chemostat, doubling time 6 h
[6] = wild type E. coli NCM3722, growth: C-lim chemostat, doubling time 3 h
[7] = wild type E. coli NCM3722, growth: C-lim chemostat, doubling time 6 h
[8] = wild type E. coli NCM3722, growth: C-lim chemostat, doubling time 12 h
[9] = wild type E. coli NCM3722, growth: N-lim chemostat, doubling time 6 h
[10] = wild type E. coli NCM3722, growth: N-lim chemostat, doubling time 12 h
[11] = wild type E. coli NCM3722, growth: P-lim chemostat, doubling time 6 h
[12] = wild type E. coli NCM3722, growth: P-lim chemostat, doubling time 12 h

Sequence | total protein half-life in vivo [1] | total protein half-life in vivo [2] | total protein half-life in vivo [3] | total protein half-life in vivo [4] | total protein half-life in vivo [5] | total protein half-life in vivo [6] | total protein half-life in vivo [7] | total protein half-life in vivo [8] | total protein half-life in vivo [9] | total protein half-life in vivo [10] | total protein half-life in vivo [11] | total protein half-life in vivo [12]
MMKTVNELIKDINSLTSHLHEKDFLLTWEQTPDELKQVLDVAAALKALRAENISTKVFNSGLGISVFRDNSTRTRFSYASALNLLGLAQQDLDEGKSQIAHGETVRETANMISFCADAIGIRDDMYLGAGNAYMREVGAALDDGYKQGVLPQRPALVNLQCDIDHPTQSMADLAWLREHFGSLENLKGKKIAMTWAYSPSYGKPLSVPQGIIGLMTRFGMDVTLAHPEGYDLIPDVVEVAKNNAKASGGSFRQVTSMEEAFKDADIVYPKSWAPYKVMEERTELLRANDHEGLKALEKQCLAQNAQHKDWHCTEEMMELTRDGEALYMHCLPADISGVSCKEGEVTEGVFEKYRIATYKEASWKPYIIAAMILSRKYAKPGALLEQLLKEAQERVK | 4.89 ± 0.5 h | 2.63 h | 2.5 ± 0.084 h | 3.03 h | 2.82 ± 0.23 h | 2.94 ± 0.24 h | 4.89 ± 0.37 h | 9.18 ± 0.49 h | 2.53 h | 3.87 ± 0.06 h |  | 
MAKQPGLDFQSAKGGLGELKRRLLFVIGALIVFRIGSFIPIPGIDAAVLAKLLEQQRGTIIEMFNMFSGGALSRASIFALGIMPYISASIIIQLLTVVHPTLAEIKKEGESGRRKISQYTRYGTLVLAIFQSIGIATGLPNMPGMQGLVINPGFAFYFTAVVSLVTGTMFLMWLGEQITERGIGNGISIIIFAGIVAGLPPAIAHTIEQARQGDLHFLVLLLVAVLVFAVTFFVVFVERGQRRIVVNYAKRQQGRRVYAAQSTHLPLKVNMAGVIPAIFASSIILFPATIASWFGGGTGWNWLTTISLYLQPGQPLYVLLYASAIIFFCFFYTALVFNPRETADNLKKSGAFVPGIRPGEQTAKYIDKVMTRLTLVGALYITFICLIPEFMRDAMKVPFYFGGTSLLIVVVVIMDFMAQVQTLMMSSQYESALKKANLKGYGR [P0AGA2] | 4.966 ± 0.022 h |  | 5.77 ± 1 h | 4.51 ± 0.048 h | 5.24 ± 1 h | 3.3 ± 0.39 h | 5.04 ± 0.31 h | 9.27 ± 3 h | 4.83 ± 0.52 h | 8.18 ± 0.17 h | 4.94 ± 0.68 h | 8.06 ± 0.49 h
MKKSLLGLTFASLMFSAGSAVAADYKIDKEGQHAFVNFRIQHLGYSWLYGTFKDFDGTFTFDEKNPAADKVNVTINTTSVDTNHAERDKHLRSADFLNTAKYPQATFTSTSVKKDGDELDITGDLTLNGVTKPVTLEAKLIGQGDDPWGGKRAGFEAEGKIKLKDFNIKTDLGPASQEVDLIISVEGVQQK [P0A8X2] | 5.61 ± 0.24 h | 6.32 ± 0.21 h | 6.38 ± 0.11 h | 6.59 ± 0.48 h | 6.61 ± 1.1 h | 3.22 ± 0.24 h |  | 10.6 ± 4 h | 6.19 ± 0.62 h | 10.9 ± 2.2 h | 6.05 ± 0.28 h | 14 ± 1.4 h
MFQKVDAYAGDPILTLMERFKEDPRSDKVNLSIGLYYNEDGIIPQLQAVAEAEARLNAQPHGASLYLPMEGLNCYRHAIAPLLFGADHPVLKQQRVATIQTLGGSGALKVGADFLKRYFPESGVWVSDPTWENHVAIFAGAGFEVSTYPWYDEATNGVRFNDLLATLKTLPARSIVLLHPCCHNPTGADLTNDQWDAVIEILKARELIPFLDIAYQGFGAGMEEDAYAIRAIASAGLPALVSNSFSKIFSLYGERVGGLSVMCEDAEAAGRVLGQLKATVRRNYSSPPNFGAQVVAAVLNDEALKASWLAEVEEMRTRILAMRQELVKVLSTEMPERNFDYLLNQRGMFSYTGLSAAQVDRLREEFGVYLIASGRMCVAGLNTANVQRVAKAFAAVM | 4.07 ± 1.2 h | 2.43 ± 0.047 h | 2.54 ± 0.061 h | 3.01 ± 0.049 h | 2.676 ± 0.003 h | 3.06 ± 0.56 h | 4.92 ± 0.29 h | 7.47 ± 0.87 h | 2.62 ± 0.058 h | 3.66 ± 0.17 h | 5.28 ± 0.29 h | 9.773 ± 0.058 h
